{
  "source": "patent US20210324028A1",
  "about": "(Pfizer, published 2021)",
  "binders": {"B1": {"name": "xmPD-1-hIL15 NQ-3d (other)", "heavy 1": "HHHHHHHHGGGGSGSGGEVQLVESGGGLVKPGGSLELSCAASGFTFSSYWMSWVRQAPEKGLEWVAAISPSGGSTYYADSVKGRFTISRDNAKNTLFLQMTSLRSEDTAMYYCAKESWGAYYDLWGQGTTVTVSSASTKGPSVFPLAPCSRSTSESTAALGCLVKDYFPEPVTVSWNSGALTSGVHTFPAVLQSSGLYSLSSVVTVPSSNFGTQTYTCNVDHKPSNTKVDKTVERKCRVRCPRCPAPPVAGPSVFLFPPKPKDTLMISRTPEVTCVVVAVSHEDPEVQFNWYVDGVEVHNAKTKPREEQFNSTFRVVSVLTVVHQDWLNGKEYKCKVSNKGLPSSIEKTISKTKGQPREPQVYTLPPSREEMTKNQVSLTCLVKGFYPSDIAVEWESNGQPENNYKTTPPMLDSDGSFFLYSRLTVDKSRWQQGNVFSCSVMHEALHNHYTQKSLSLSPGK", "heavy 2": "EVQLVESGGGLVKPGGSLELSCAASGFTFSSYWMSWVRQAPEKGLEWVAAISPSGGSTYYADSVKGRFTISRDNAKNTLFLQMTSLRSEDTAMYYCAKESWGAYYDLWGQGTTVTVSSASTKGPSVFPLAPCSRSTSESTAALGCLVKDYFPEPVTVSWNSGALTSGVHTFPAVLQSSGLYSLSSVVTVPSSNFGTQTYTCNVDHKPSNTKVDKTVERKCEVECPECPAPPVAGPSVFLFPPKPKDTLMISRTPEVTCVVVAVSHEDPEVQFNWYVDGVEVHNAKTKPREEQFNSTFRVVSVLTVVHQDWLNGKEYKCKVSNKGLPSSIEKTISKTKGQPREPQVYTLPPSREEMTKNQVSLTCEVKGFYPSDIAVEWESNGQPENNYKTTPPMLDSDGSFFLYSKLTVDKSRWQQGNVFSCSVMHEALHNHYTQKSLSLSPGSGGGGGTSATATPGANWVNVISDLKKIEDLIQSMHIDATLYTESDVHPSCKVTAMKCFLLQLQVISLQSGDASIHDTVENLIILANNSLSSNGNVTESGCKECEELEQKNIKEFLQSFVHIVQMFINT", "light": "DIVMTQSPSSLSVSAGDKVTMSCRASQGISSWLAWYQQKPWQPPKLLIYKASTLESGVPDRFTGSGSGTDFTLTISSVQAEDLAVYYCQQSYSTPWTFGGGTKLEIKGTVAAPSVFIFPPSDEQLKSGTASVVCLLNNFYPREAKVQWKVDNALQSGNSQESVTEQDSKDSTYSLSSTLTLSKADYEKHKVYACEVTHQGLSSPVTKSFNRGEC", "notes": "also called xmPD-1-IL15 NQ-3d; xmPD-IL15 NQ3d"}},
  "key": {"human IL-2Rβ": {"target": "T1, human IL-2Rβ (human, UniProt P14784 27-240, limits assumed)", "T1 construct": "also called hIL-2Rβ; IL-2 receptor beta", "T1 sequence (looked up)": "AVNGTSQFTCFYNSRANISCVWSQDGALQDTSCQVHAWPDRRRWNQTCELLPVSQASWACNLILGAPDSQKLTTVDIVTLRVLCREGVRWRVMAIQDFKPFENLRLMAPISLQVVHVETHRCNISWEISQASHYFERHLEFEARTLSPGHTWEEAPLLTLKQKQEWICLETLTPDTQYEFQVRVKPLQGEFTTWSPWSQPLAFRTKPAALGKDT", "test": "SPR, steady state, fusion captured", "procedure": "Anti-human Fc sensor chips were prepared at 25° C. with a running buffer of 10 mM HEPES, 150 mM NaCl, 0.05% (v/v) Tween-20, pH 7.4. All surfaces of a Biacore CM4 sensor chip were activated with a 1:1 (v/v) mixture of 400 mM EDC and 100 mM NHS for 7 minutes, at a flow rate of 10 μL/min. An anti-human Fc reagent (Goat anti-human IgG Fc-γ specific, SouthernBiotech, Birmingham, Ala., Catalog #2014-01) was diluted to 50 μg/mL in 10 mM sodium acetate (pH 4.5) and injected on all flow cells for 7 minutes at 20 μL/min. All flow cells were blocked with 100 mM ethylenediamine in 200 mM Borate buffer pH 8.5 for 7 minutes at 10 μL/min.\nAll protein interaction experiments were performed at 37° C. using a running buffer of 10 mM HEPES, 150 mM NaCl, 0.05% (v/v) Tween-20, pH 7.4, 1 mg/mL BSA. Anti-PD-1-hIL-15 fusion proteins were captured at 10 μg/mL at a flow rate of 10 μL/min for 2 minutes. Different fusion proteins were captured in flow cells 2, 3 and 4. No protein was captured onto flow cell 1 which was used as a reference surface. […] After each analyte injection, dissociation was monitored for 5 minutes followed by regeneration of all flow cells with three 60-second injections of 75 mM phosphoric acid. […] For kinetic analysis, the double-referenced sensorgrams were fit globally to a simple 1:1 Langmuir with mass transport binding model using Biacore T200 Evaluation Software version 2.0. For steady-state affinity analysis, the double-referenced equilibrium binding responses were fit with a 1:1 Langmuir steady-state model using Biacore T200 Evaluation Software version 2.0."}, "human IL-15Rα": {"target": "T2, human IL-15Rα (human, UniProt Q13261 31-205, limits assumed)", "T2 construct": "also called hIL-15Rα; IL-15 receptor alpha", "T2 sequence (Q13261 31-205 limits assumed)": "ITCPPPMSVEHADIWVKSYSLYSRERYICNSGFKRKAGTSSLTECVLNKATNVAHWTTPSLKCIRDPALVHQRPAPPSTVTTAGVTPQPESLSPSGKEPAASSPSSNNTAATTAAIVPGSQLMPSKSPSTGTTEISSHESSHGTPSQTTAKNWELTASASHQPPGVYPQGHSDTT", "test": "SPR 37C, fusion captured by anti-human Fc", "procedure,_shortened": "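Anti-PD-1–hIL-15 fusions captured at 10 μg/mL on an anti-human Fc surface, receptor injected at 37 °C in HEPES-buffered saline with 0.05% Tween-20 and 1 mg/mL BSA, pH 7.4; 5 min dissociation.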"}, "[1]": {"target": "T3, mouse PD-1 on doxycycline-induced 32D[pRF770+pRF791] cells (mouse, UniProt Q02242 25-288)", "T3 sequence (looked up)": "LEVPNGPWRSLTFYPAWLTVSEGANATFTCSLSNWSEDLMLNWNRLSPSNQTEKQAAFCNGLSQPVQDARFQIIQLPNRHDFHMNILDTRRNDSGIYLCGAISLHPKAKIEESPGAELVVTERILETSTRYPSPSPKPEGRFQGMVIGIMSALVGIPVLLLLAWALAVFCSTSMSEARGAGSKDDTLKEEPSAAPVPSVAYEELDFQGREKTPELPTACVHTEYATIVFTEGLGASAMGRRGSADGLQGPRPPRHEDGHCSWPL", "test": "cell-based or functional assay"}, "[2]": {"target": "T4, IL-15 signaling receptor on 32D[pRF770+pRF791] cells (human CD122 plus mouse CD132) (human; mouse, UniProt P14784 27-551; P34902 23-369)", "T4 sequence (looked up) 1": "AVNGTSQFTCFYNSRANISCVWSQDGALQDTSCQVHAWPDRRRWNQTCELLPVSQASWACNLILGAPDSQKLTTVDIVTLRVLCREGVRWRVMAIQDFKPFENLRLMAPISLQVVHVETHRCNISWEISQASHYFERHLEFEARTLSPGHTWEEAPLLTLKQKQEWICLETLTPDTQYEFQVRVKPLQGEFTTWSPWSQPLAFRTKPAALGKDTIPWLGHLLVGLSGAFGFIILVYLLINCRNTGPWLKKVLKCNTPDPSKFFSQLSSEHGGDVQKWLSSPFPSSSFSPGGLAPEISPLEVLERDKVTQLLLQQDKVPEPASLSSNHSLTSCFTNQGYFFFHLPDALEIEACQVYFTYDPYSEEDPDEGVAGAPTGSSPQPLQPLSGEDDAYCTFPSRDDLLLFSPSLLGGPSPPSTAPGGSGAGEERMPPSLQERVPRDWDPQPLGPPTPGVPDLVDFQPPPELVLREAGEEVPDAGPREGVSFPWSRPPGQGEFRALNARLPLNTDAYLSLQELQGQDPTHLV", "T4 sequence (looked up) 2": "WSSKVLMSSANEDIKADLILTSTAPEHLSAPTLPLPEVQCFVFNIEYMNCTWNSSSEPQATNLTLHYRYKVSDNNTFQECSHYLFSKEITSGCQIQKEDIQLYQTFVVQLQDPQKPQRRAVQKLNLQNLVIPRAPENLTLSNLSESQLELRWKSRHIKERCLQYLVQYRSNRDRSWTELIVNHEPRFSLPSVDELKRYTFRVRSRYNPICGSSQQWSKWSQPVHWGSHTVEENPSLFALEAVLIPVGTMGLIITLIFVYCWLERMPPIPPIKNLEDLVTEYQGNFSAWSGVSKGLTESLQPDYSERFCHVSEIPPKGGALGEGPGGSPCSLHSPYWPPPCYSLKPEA", "test": "cell-based or functional assay"}},
  "data": [
    {"binder": "B1", "values": [
      {"measurement": "Kd", "setting": "human IL-2Rβ", "result": 446, "unit": "nM"},
      {"measurement": "binding result", "setting": "human IL-15Rα", "result": "no binding (tested: 3000 nM)"},
      {"measurement": "Fold change = EC50 (PD-1(low))/EC50 (PD-1+)", "setting": "[1]", "result": 163, "unit": "fold"},
      {"measurement": "pSTAT5 EC50 on PD-1+ 32D reporter cells", "setting": "[1]", "result": 22.9, "unit": "pM"},
      {"measurement": "pSTAT5 EC50 on PD-1(low) 32D reporter cells", "setting": "[2]", "result": 3.73, "unit": "nM"}
    ]}
  ]
}
